Data on one molecule can be found in patent publication US11541101 (UNIVERSITY OF VIRGINIA PATENT FOUNDATION, dated 2023).

This assay deals with T1, LEM domain containing protein 3 (LEMD3), endogenous (human, UniProt Q9Y2U8 2-911).
T1 construct: also called endogenous LEMD3; native LEMD3
T1 sequence: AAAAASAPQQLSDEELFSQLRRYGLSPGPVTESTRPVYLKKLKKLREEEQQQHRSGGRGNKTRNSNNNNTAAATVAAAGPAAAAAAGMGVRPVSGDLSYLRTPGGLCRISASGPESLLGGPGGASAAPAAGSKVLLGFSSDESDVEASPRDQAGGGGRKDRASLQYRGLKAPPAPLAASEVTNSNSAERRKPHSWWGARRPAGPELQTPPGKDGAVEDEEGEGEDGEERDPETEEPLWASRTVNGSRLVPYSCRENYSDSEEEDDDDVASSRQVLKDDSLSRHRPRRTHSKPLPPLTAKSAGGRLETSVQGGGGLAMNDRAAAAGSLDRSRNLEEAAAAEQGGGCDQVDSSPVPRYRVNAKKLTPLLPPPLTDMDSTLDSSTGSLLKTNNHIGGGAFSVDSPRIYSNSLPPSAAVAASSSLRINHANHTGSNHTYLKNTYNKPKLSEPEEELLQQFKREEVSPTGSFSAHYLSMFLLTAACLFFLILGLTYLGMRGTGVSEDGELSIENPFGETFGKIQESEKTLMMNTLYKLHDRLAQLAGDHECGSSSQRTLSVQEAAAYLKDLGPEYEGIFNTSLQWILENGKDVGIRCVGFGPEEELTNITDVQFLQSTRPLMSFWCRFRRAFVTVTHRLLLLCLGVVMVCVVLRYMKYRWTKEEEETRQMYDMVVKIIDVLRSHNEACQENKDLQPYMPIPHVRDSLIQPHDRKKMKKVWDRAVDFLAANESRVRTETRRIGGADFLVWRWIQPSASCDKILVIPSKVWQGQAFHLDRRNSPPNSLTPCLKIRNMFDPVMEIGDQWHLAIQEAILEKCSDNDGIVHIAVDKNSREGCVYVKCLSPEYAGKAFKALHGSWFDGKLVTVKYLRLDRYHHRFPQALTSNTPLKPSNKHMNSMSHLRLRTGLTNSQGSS
Put plainly: LEMD3-PPM1α PLA in HFFs on glass; significant in cytoplasm and nucleus. As for the experimental part:
In vitro PLA: Protein-protein PLA was per-formed with antibody pairs listed in Table 4 as described in (42) with the following modifications: cells were plated on FN-coated glass or hydrogels (Matrigen, Brea, Calif.). All primary antibody in-cubations were performed for 16-24 hours at 4 C and cells were counter-stained with 1:40 phalloidin-488 or phalloidin-546 in 1×PBS for 30 minutes at room tempera-ture and/or further processed for IF imaging using the procedure recommended in Sigma's PLA Resource Center. For all recombinant LEMD3 and C-terminal fragment experiments, HFFs were electroporated as above and allowed to culture for 24 hours on 10 µg/mL fibronectin coated glass or hydrogels before fixation. For LEMD3-phospho-Smad2/3, LEMD3-Smad2/3+TGFβ and for Smad2/3-Smad4 PLA assays: cells were treated 90 minutes before fixation with 50 µg/mL for LEMD3- and CTF-Smad2/3 assays, 100 µg/mL TGFβ for LEMD3-phospho-Smad2/3 experiments and 500 µg/mL TGFβ for Smad2/3-Smad4 experiments. […] Imaging and analysis were performed as described for high-resolution ex vivo PLA signals except that no tissue autofluorescence signal was measured or needed to be subtracted and, when appro-priate, other IF signal (e.g. FLAG) were measured in parallel. […] Instead the PLA signal was quantified as the PLA volume divided by the nuclear intensity for each image.

B1: Protein Phosphatase, Mg2+/Mn2+ Dependent 1α (PPM1α) (enzyme, human, UniProt P35813 2-382, looked up)
chain: GAFLDKPKMEKHNAQGQGNGLRYGLSSMQGWRVEMEDAHTAVIGLPSGLESWSFFAVYDGHAGSQVAKYCCEHLLDHITNNQDFKGSAGAPSVENVKNGIRTGFLEIDEHMRVMSEKKHGADRSGSTAVGVLISPQHTYFINCGDSRGLLCRNRKVHFFTQDHKPSNPLEKERIQNAGGSVMIQRVNGSLAVSRALGDFDYKCVHGKGPTEQLVSPEPEVHDIERSEEDDQFIILACDGIWDVMGNEELCDFVRSRLEVTDDLEKVCNEVVDTCLYKGSRDNMSVILICFPNAPKVSPEAVKKEAELDKYLECRVEEIIKKQGEGVPDLVHVMRTLASENIPSLPPGGELASKRNVIEAVYNRLNPYKNDDTDSTSTDDMW
notes: whole, on cells; Endogenous protein inside fixed HFFs, detected by PLA with antibody 7F12; also called PPM1a
As to B1, the binding result was “binds”.
